Assays:
[1] = biological target: ScSth1p bromodomain (residues 1250-1359), wild type (S. cerevisiae) (UniProt P32597); test: ITC
[2] = biological target: ScSth1p Ser1276Glu mutant bromodomain (S. cerevisiae) (UniProt P32597); test: ITC

| Kd [1] | Kd [2] | Substance |
| --- | --- | --- |
| 44 µM |  | HsH2AK15ac peptide |
| 48 µM | 31 µM | H4K20ac peptide |
| 18 µM | 3 µM | H3K14ac peptide |

Reference: doi:10.1101/559005
